Assay results from publication PMC11743138, “Structural basis for the interaction between the Drosophila RTK Sevenless (dROS1) and the GPCR BOSS” (Nature Communications, 2025).

What was measured:
[1] = molecular target: T1, dROS1 (Sevenless) extracellular region construct 2-3 (D. melanogaster, UniProt P13368 440-931); test: SPR
T1 chain: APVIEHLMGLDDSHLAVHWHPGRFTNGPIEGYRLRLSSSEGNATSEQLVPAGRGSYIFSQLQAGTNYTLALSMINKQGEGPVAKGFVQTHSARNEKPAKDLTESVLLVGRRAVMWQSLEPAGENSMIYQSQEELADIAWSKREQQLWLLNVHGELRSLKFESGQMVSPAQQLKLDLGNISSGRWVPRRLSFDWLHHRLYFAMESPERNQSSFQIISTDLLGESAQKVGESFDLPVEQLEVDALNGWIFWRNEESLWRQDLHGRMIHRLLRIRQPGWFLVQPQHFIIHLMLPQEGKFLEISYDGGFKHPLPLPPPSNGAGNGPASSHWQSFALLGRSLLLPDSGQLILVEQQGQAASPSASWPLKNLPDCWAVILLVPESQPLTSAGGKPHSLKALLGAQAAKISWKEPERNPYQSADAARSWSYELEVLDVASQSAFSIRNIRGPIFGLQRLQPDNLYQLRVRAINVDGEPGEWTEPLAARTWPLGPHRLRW

[2] = molecular target: T2, dROS1 (Sevenless) extracellular region construct 1-4, his-tagged (D. melanogaster, UniProt P13368 126-1298); test: SPR; BIAcore T200; dROS1 constructs covalently coupled (NHS/EDC) to a CM5 chip, BOSS ECR proteins flowed over at 10 µL/min for 180 s; 20 mM HEPES pH 7.5, 100 mM NaCl; plateau RU against BOSS concentration fitted to a single-site specific binding model; conditions: both partners purified
T2 construct: Sevenless (dROS1), D. melanogaster, N-terminus of the ECR to the fourth FNIII domain, residues 126-1298; His tag is said to be kept for the HDX-MS experiment (immobilised on Ni resin); Factor Xa cut site after the His tag; also called dROS1 (1-4); N-terminal region of dROS1; source: Trichoplusia ni (Hi5) cells, baculovirus, purified from the medium (Ni resin, SEC); not shown: His8, N-terminal, …
T2 sequence (looked up): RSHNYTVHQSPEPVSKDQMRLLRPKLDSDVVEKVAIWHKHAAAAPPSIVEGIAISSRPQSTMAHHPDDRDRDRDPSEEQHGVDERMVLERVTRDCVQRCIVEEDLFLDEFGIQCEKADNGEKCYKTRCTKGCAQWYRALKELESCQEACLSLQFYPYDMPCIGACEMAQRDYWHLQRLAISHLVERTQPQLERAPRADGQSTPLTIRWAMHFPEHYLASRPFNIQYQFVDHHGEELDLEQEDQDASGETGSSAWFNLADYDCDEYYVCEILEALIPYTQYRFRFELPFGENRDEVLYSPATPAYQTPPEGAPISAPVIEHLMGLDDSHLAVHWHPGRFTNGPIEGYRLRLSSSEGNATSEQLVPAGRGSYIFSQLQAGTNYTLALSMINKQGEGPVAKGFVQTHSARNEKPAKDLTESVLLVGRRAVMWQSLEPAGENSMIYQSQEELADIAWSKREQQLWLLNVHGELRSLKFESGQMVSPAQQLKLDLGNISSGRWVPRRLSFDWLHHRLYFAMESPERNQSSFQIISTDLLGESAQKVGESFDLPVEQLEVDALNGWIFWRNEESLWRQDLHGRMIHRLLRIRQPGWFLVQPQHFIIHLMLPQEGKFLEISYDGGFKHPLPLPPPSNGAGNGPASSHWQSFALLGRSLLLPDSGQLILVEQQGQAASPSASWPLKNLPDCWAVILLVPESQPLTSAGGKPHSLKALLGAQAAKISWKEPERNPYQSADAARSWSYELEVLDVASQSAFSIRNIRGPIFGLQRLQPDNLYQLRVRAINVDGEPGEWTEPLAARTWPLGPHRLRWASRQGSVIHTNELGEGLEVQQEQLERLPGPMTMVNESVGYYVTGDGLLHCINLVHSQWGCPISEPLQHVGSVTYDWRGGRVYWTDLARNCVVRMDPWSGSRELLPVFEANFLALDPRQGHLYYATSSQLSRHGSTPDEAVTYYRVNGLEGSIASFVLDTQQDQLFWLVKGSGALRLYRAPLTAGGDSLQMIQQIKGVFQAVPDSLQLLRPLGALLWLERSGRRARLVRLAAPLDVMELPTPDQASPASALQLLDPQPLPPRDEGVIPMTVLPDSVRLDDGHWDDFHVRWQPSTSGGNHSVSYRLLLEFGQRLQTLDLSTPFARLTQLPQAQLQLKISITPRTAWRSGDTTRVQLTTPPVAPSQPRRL

[3] = molecular target: T3, dROS1 (Sevenless) full extracellular region, construct 1-9 (D. melanogaster, UniProt P13368 126-2113); test: as above; conditions: both partners purified
T3 construct: Sevenless (dROS1), D. melanogaster, extracellular region with FNIII domains 1 to 9, residues 126-2113; A Factor Xa cut site stands between the N-terminal octa-histidine tag and the protein; Coupled covalently to a CM5 chip in SPR; also called dROS1 1-9; full ECR of dROS1; source: Trichoplusia ni (Hi5) cells, baculovirus, purified from the medium (Ni resin, SEC)

B1: BOSS (Bride Of Sevenless) extracellular region, His tag cleaved (domain or fragment, D. melanogaster, UniProt P22815 102-510, looked up)
chain: GTTASLVPEICLNGLQLTVNSADEGTVIRKQEEFVKILEGDVVLSVLTKDPDSALFVINRVNQANLIMADFEIGIRAISIDNASLAENLLIQEVQFLQQCTTYSMGIFVDWELYKQLESVIKDLEYNIWPIPGTRAHLFPKVAHLLHQMPWGEKIASVEIATETLEMYNEFMEAARQEHMCLMHFKSDDNVYIMFGNKLASHFKENGTLFSVPTDRTDDEFLADLPNRAFVLMENEIDLSTAVELDATPTALDEILIGKSVLPSRVLSFAGSIIDLMNWLRGSLSKHCKRGEEHDLYVLESCFNFLNFIEDWRTSEYRQAHDTAEILSLLLMRKLGTAMNFQMYQKKVLTLDKITGESRTELREIASQNFVTNVTTYYHYNRDNHTSLELKTKFGQVFNCQYSAGDNRR
notes: Bride of sevenless (BOSS), D. melanogaster, extracellular region, residues 102-510; also called BOSS ECR; BOSSWT; source: Trichoplusia ni (Hi5) cells, baculovirus, purified from the medium (Ni resin, SEC; Factor Xa cleavage, Ni flow-through, SEC); not shown: His8, N-terminal, cleaved
- Kd [1]: 5 µM
- Kd [2]: 3 to 5 µM
- Kd [3]: 4.4 µM
